This note sets out measurements from US20200317768A1 (published 2020).

Holding throughout (assay): SPR (BIACORE); KD of SG1 divided by KD of variant
Assay [1] addresses T1, cynomolgus monkey FcγRIIa2 extracellular domain, His-tagged (cynomolgus monkey).
T1 construct: also called cyno FcγRIIa2; cynoFcgRIIa2; not shown: C-terminal His-tag
T1 chain: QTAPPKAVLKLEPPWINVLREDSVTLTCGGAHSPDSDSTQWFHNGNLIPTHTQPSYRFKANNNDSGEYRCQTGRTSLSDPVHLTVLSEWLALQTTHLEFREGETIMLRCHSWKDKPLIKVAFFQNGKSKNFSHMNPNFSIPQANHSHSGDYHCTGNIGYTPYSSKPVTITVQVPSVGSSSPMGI
Here is the method: (§1) The kinetic analysis of interactions between these antibodies and FcγR was carried out using BIACORE® T200 or BIACORE® 4000 (GE Healthcare). HBS-EP+ (GE Healthcare) was used as the running buffer, and the measurement temperature was set to 25° C. A chip produced by immobilizing Protein A. Protein A/G or mouse anti-human IgG kappa light chain (BD Biosciences) onto a Series S Sensor Chip CM4 or CM5 (GE Healthcare) by the amine-coupling method was used. […] After the measurement, the antibody captured on the chip was washed off by allowing reaction with 10 mM glycine-HCl, pH1.5 and 25 mM NaOH so that the chip was regenerated and used repeatedly. The sensorgrams obtained as measurement results were analyzed by the 1:1 Langmuir binding model using the BIACORE® Evaluation Software to calculate the binding rate constant ka (L/mol/s) and dissociation rate constant kd (l/s), and the dissociation constant KD (mol/L) was calculated from these values. […] Regarding such interactions, KD values were calculated using the following 1:1 binding model described in BIACORE® T100 Software Handbook BR1006-48 Edition AE.

Assay [2] addresses T2, human FcγRIIaH extracellular domain, His-tagged (human, UniProt P12318 34-217).
T2 construct: also called human FcγRIIa (type H); FcgRIIaH; not shown: C-terminal His-tag
T2 sequence: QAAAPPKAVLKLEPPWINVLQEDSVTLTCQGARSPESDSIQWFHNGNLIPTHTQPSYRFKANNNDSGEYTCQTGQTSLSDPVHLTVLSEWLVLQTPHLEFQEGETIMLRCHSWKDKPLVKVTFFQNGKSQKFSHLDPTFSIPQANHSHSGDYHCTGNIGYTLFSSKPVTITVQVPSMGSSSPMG
The procedure: as §1

The target of assay [3] is T3, cynomolgus monkey FcγRIIa3 extracellular domain, His-tagged (cynomolgus monkey).
T3 construct: also called cyno FcγRIIa3; cynoFcgRIIa3; not shown: C-terminal His-tag
T3 chain: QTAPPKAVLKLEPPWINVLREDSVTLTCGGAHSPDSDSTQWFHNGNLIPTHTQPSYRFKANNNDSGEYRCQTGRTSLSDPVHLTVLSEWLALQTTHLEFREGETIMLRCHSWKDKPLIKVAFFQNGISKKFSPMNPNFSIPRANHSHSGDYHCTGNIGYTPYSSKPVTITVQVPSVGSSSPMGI
The procedure:
as §1

The target of assay [4] is T4, cynomolgus monkey FcγRIIa1 extracellular domain, His-tagged (cynomolgus monkey).
T4 construct: also called cyno FcγRIIa1; cynoFcgRIIa1; not shown: C-terminal His-tag
T4 chain: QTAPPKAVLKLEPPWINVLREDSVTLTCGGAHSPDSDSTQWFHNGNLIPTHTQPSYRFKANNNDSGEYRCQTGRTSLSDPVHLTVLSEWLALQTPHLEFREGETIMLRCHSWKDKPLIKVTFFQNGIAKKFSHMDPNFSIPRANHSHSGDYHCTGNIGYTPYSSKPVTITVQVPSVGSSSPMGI
The procedure:
as §1

For assay [5], the target named is T5, cynomolgus monkey FcγRIIIaS extracellular domain, His-tagged (cynomolgus monkey, UniProt Q8SPW2 21-206 at identity 1.00)).
T5 construct: also called cyno FcγRIIIaS; cynoFcγRIIIaS; not shown: C-terminal His-tag
T5 chain: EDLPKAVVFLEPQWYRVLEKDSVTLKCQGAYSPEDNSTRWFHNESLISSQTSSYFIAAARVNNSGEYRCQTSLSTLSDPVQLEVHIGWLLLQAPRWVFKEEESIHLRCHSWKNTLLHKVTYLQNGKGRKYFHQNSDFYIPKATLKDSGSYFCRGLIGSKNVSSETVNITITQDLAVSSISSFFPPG
Here is the method:
as §1

Assay [6] deals with T6, human FcγRIIb extracellular domain, His-tagged (human, UniProt P31994 43-217).
T6 construct: also called FcgRIIb (human); not shown: C-terminal His-tag
T6 sequence: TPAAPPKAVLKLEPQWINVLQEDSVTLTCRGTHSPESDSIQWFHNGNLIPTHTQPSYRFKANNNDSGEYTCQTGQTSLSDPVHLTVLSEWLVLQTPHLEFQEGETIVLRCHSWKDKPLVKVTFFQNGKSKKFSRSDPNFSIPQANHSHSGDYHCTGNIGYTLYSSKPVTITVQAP
The procedure: as §1

Assay [7] has as its target T7, human FcγRIIaR extracellular domain, His-tagged (human, UniProt P12318 34-217).
T7 construct: also called human FcγRIIa (type R); FcgRIIaR; not shown: C-terminal His-tag
T7 chain: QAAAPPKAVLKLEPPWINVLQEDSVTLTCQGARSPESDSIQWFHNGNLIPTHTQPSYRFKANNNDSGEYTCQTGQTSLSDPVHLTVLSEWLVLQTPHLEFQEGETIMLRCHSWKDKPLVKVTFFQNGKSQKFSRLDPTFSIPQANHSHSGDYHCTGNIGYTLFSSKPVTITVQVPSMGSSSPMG
The procedure:
as §1

The target in assay [8] is T8, cynomolgus monkey FcγRIIb extracellular domain, His-tagged (cynomolgus monkey).
T8 construct: also called cyno FcγRIIb; cynoFcγRIIb; not shown: C-terminal His-tag
T8 chain: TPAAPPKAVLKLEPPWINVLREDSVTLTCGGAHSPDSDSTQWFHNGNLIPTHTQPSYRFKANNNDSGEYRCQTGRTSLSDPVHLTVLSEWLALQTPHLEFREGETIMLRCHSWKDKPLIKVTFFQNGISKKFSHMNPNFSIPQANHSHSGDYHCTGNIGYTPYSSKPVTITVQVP
The procedure:
as §1

Assay [9] has as its target T9, human FcγRIIIaV extracellular domain, His-tagged (human, UniProt P08637 17-208).
T9 construct: also called FcgRIIIaV; not shown: C-terminal His-tag
The procedure: as §1

T9 sequence (P08637 17-208 F176V): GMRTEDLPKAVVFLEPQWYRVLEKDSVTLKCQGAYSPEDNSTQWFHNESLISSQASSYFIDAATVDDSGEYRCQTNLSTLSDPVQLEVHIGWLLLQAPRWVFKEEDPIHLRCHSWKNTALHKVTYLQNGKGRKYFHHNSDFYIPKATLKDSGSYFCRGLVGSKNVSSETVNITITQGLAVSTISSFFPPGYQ

B1: MS_M103205H795-SG1/M103202L889-SK1 (antibody, human IgG1, kappa)
heavy: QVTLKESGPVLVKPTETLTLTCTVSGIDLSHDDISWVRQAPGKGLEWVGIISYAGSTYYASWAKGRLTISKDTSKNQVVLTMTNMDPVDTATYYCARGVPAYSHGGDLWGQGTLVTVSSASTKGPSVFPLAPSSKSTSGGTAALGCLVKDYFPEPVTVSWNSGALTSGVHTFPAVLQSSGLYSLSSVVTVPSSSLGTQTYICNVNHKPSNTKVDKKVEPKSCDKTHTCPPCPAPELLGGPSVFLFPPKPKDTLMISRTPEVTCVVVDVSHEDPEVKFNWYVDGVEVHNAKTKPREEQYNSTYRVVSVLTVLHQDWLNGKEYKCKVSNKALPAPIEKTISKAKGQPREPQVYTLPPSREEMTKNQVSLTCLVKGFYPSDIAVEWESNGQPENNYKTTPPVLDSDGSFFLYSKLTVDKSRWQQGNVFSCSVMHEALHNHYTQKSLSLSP
light: DIVMTQSPATLSLSPGERATLSCTSSQSVYHANWLSWFQQKPGQPPKLLIYWASTLAYGVPSRFSGSGSGTDFTLTISSLQPEDAATYYCAGGYGGGRYAFGQGTKVEIKRTVAAPSVFIFPPSDEQLKSGTASVVCLLNNFYPREAKVQWKVDNALQSGNSQESVTEQDSKDSTYSLSSTLTLSKADYEKHKVYACEVTHQGLSSPVTKSFNRGEC
notes: Parent antibody with heavy chain constant region SG1; also called MS1032LO06-SG1; copies: 2 + 2
With B1, the “KD fold (SG1 = 1)” value in [1], in assay [2], in [3], in assay [4], in [5] and in assay [6] was 1 fold in each case. In addition, the “KD fold (SG1 = 1)” value in [7], in assay [8] and in assay [9] was 1 fold in each case.

B2: M103205H795-MY265/M103202L889-SK1 (antibody, human IgG1, kappa)
heavy: QVTLKESGPVLVKPTETLTLTCTVSGIDLSHDDISWVRQAPGKGLEWVGIISYAGSTYYASWAKGRLTISKDTSKNQVVLTMTNMDPVDTATYYCARGVPAYSHGGDLWGQGTLVTVSSASTKGPSVFPLAPSSKSTSGGTAALGCLVKDYFPEPVTVSWNSGALTSGVHTFPAVLQSSGLYSLSSVVTVPSSSLGTQTYICNVNHKPSNTKVDKKVEPKSCDKTHTCPPCPAPELLTGPSVFLFPPKPKDTLMISRTPEVTCVVVDVSDEDPEVKFNWYVDGVEVHNAKTKPREEQYNSTYRVVSVLTVLHQDWLNGKEYKCKVSNKALPKPIEKTISKAKGQPREPQVYTLPPSREEMTKNQVSLTCLVKGFYPSDIAVEWESNGQPENNYKTTPPVLDSDGSFFLYSKLTVDKSRWQQGNVFSCSVMHEALHNHYTQKSLSLSP
light: DIVMTQSPATLSLSPGERATLSCTSSQSVYHANWLSWFQQKPGQPPKLLIYWASTLAYGVPSRFSGSGSGTDFTLTISSLQPEDAATYYCAGGYGGGRYAFGQGTKVEIKRTVAAPSVFIFPPSDEQLKSGTASVVCLLNNFYPREAKVQWKVDNALQSGNSQESVTEQDSKDSTYSLSSTLTLSKADYEKHKVYACEVTHQGLSSPVTKSFNRGEC
notes: also called MS103205H795-MY265; copies: 2 + 2
Take B2: the “KD fold (SG1 = 1)” value in [1] was 2.7 fold; in assay [2] it was 3.3 fold; in [3] it was 3.5 fold; in [4], 1.5 fold; in assay [5], 0.2 fold; in assay [6], 2.1 fold. The entries for the “KD fold (SG1 = 1)” value in assay [7], in assay [8] and in [9] were 2.5 fold, 3.1 fold and 0.2 fold, respectively.

B3: M103205H795-MY441/M103202L889-SK1 (antibody, human IgG1, kappa)
heavy: QVTLKESGPVLVKPTETLTLTCTVSGIDLSHDDISWVRQAPGKGLEWVGIISYAGSTYYASWAKGRLTISKDTSKNQVVLTMTNMDPVDTATYYCARGVPAYSHGGDLWGQGTLVTVSSASTKGPSVFPLAPSSKSTSGGTAALGCLVKDYFPEPVTVSWNSGALTSGVHTFPAVLQSSGLYSLSSVVTVPSSSLGTQTYICNVNHKPSNTKVDKKVEPKSCDKTHTCPPCPAAELLTGPSVFLFPPKPKDTLMISRTPEVTCVVVDVSDEDPEVKFNWYVDGVEVHNAKTKPREEQYNSTYRVVSVLTVLHQDWLNGKEYKCKVSNKALPKPIEKTISKAKGQPREPQVYTLPPSREEMTKNQVSLTCLVKGFYPSDIAVEWESNGQPENNYKTTPPVLDSDGSFFLYSKLTVDKSRWQQGNVFSCSVMHEALHNHYTQKSLSLSP
light: DIVMTQSPATLSLSPGERATLSCTSSQSVYHANWLSWFQQKPGQPPKLLIYWASTLAYGVPSRFSGSGSGTDFTLTISSLQPEDAATYYCAGGYGGGRYAFGQGTKVEIKRTVAAPSVFIFPPSDEQLKSGTASVVCLLNNFYPREAKVQWKVDNALQSGNSQESVTEQDSKDSTYSLSSTLTLSKADYEKHKVYACEVTHQGLSSPVTKSFNRGEC
notes: copies: 2 + 2
For the molecule B3, the “KD fold (SG1 = 1)” value was 1.5 fold in assay [1]; 1.9 fold in assay [2]; 2.1 fold in assay [3]; 0.8 fold in assay [4]; 0.1 fold in assay [5]; 1.6 fold in [6]. In addition, the entries for the “KD fold (SG1 = 1)” value in [7], in assay [8] and in assay [9] were 1.8 fold, 2 fold and 0.1 fold, respectively.

B4: M103205H795-MY442/M103202L889-SK1 (antibody, human IgG1, kappa)
heavy: QVTLKESGPVLVKPTETLTLTCTVSGIDLSHDDISWVRQAPGKGLEWVGIISYAGSTYYASWAKGRLTISKDTSKNQVVLTMTNMDPVDTATYYCARGVPAYSHGGDLWGQGTLVTVSSASTKGPSVFPLAPSSKSTSGGTAALGCLVKDYFPEPVTVSWNSGALTSGVHTFPAVLQSSGLYSLSSVVTVPSSSLGTQTYICNVNHKPSNTKVDKKVEPKSCDKTHTCPPCPADELLTGPSVFLFPPKPKDTLMISRTPEVTCVVVDVSDEDPEVKFNWYVDGVEVHNAKTKPREEQYNSTYRVVSVLTVLHQDWLNGKEYKCKVSNKALPKPIEKTISKAKGQPREPQVYTLPPSREEMTKNQVSLTCLVKGFYPSDIAVEWESNGQPENNYKTTPPVLDSDGSFFLYSKLTVDKSRWQQGNVFSCSVMHEALHNHYTQKSLSLSP
light: DIVMTQSPATLSLSPGERATLSCTSSQSVYHANWLSWFQQKPGQPPKLLIYWASTLAYGVPSRFSGSGSGTDFTLTISSLQPEDAATYYCAGGYGGGRYAFGQGTKVEIKRTVAAPSVFIFPPSDEQLKSGTASVVCLLNNFYPREAKVQWKVDNALQSGNSQESVTEQDSKDSTYSLSSTLTLSKADYEKHKVYACEVTHQGLSSPVTKSFNRGEC
notes: copies: 2 + 2
For the molecule B4, the “KD fold (SG1 = 1)” value was found to be 1.2 fold in assay [1]; 1.5 fold in assay [2]; 2.5 fold in assay [3]; 0.7 fold in assay [4]; 0.2 fold in [5]; 2.6 fold in [6]. The “KD fold (SG1 = 1)” value in assay [7] turned out to be 2.6 fold; in [8], 1.6 fold; in [9] it was 0.2 fold.
